Test [1] addresses caveolin-1 (Cav-1), endogenous in human renal proximal tubule (hRPT) cells (human (endogenous in hRPT cells)) (UniProt Q03135). Briefly: co-IP.
Test [2] deals with adenylyl cyclase 5/6 (AC5/6), endogenous in HEK-293 cells (human (endogenous in HEK-293)) (UniProt O95622). Nature of the test: co-IP.

3 substances from PMC4166567 can be followed below.

Sequence of UniProt Q03135 (Q03135 whole entry): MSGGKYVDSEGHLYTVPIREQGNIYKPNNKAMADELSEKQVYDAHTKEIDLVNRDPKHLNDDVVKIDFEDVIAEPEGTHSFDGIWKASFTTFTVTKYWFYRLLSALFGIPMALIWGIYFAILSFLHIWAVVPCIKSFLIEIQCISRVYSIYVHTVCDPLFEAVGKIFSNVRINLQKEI

On to “adenylyl cyclase 5/6 (AC5/6), endogenous in human renal proximal tubule (hRPT) cells (from UniProt O95622 1-1261) (enzyme)”, for which, in test [1], the density of the co-immunoprecipitated band (DU), cells with fenoldopam is 148 DU and the density of the co-immunoprecipitated band (DU), control cells stood at 70.3 DU. The substance “human dopamine D1 receptor, Myc-tagged, heterologously expressed in HEK-293 cells (HEK-hD1R) (from UniProt P21728 1-446)” returned a density of the co-immunoprecipitated band (DU), cells with fenoldopam in test [2] of 41.9 DU. In test [2], “human dopamine D5 receptor, V5-tagged, heterologously expressed in HEK-293 cells (HEK-hD5R) (from UniProt P21918 1-477)” had a density of the co-immunoprecipitated band (DU), cells with fenoldopam of 76.2 DU.
